Legend:
[1] = tested on: O=P(O)(O)O[C@H]1[C@H](OP(=O)(O)O)[C@@H](OP(=O)(O)O)[C@H](OP(=O)(O)O)[C@@H](OP(=O)(O)O)[C@H]1OP(=O)(O)O; experiment: Kinetic parameters of phytase variant with sodium phytate (double reciprocal method); type: biochemical, Y. kristensenii; details: other: E230S, optimal pH 4.5 and temperature 55° C.
Experimental: According to embodiment of the present invention, the phytase variant YkAPPA-E230S with amino acid sequence as set forth in SEQ ID NO.7 is obtained by mutation at the 230th site of glutamic acid into serine for phytase with amino acid as set forth in SEQ ID NO.1.
(§1) Gene encoding phytase YkAPPA having the nucleotide sequence as set in SEQ ID NO. 2 from Y. kristensenii was performed with site-directed mutagenesis by Overlap PCR to obtain genes encodng the phytase variants YeAPPA-L162G, YeAPPA-L162A, YeAPPA-E230G, YkAPPA-E230A, YkAPPA-E230S, YkAPPA-E230T, YkAPPA-E230D, YkAPPA-E230P, and YkAPPA-E230R, respectively.
(§2) The modified genes encoding the phytase variants were inserted into expression vector pET-22b (+), and transformed into E coli. Strain BL21 (DE3), which were induced by IPTG in 1 mM, cultivated for 5 h at 24° C. to express the phytase, followed by being purified by columns Ni-NTA and DEAE to obtain the mutant protein with the same molecular weight as that of the wild.
(§3) The effect of pepsin on the activity of the purified mutant phytase was determined by detecting the remaining activity after being treated in pH 2 for 2 hours with the different concentrations of pepsin in a mass ratio to phytase ranging from 1/1000 to 1/1. The activity of phytase was detected by ferric molybdenum sulfate blue method by adding 50 ul of phytase solution to 950 ul of sodium phytate substrate in 1.5 mmol/L to react for 30 min at 37° C., followed by adding 1 mL of 10% (m/v) TCA to stop the reaction, and 2 mL of developing color reagent. After developing, OD is measured at 700 nm to calculate the phytase activity.
(§4) The activity of phytase was measured with sodium phytate as substrate in different concentrations of 0.0625 mmol/L, 0.1 mmol/L, 0.125 mmol/L, 0.2 mmol/L, 0.25 mmol/L, 0.5 mmol/L, 1.0 mmol/L and 1.5 mmol/L at the optimal temperature and pH, followed by calculating the values of km and Vmax by double reciprocal method for Michaelis equation, and Kcat according to the theoretical molecular weight. […] And, the catalytic properties including reaction rate, turnover rate and catalytic efficiency of the other phytase variants were similar to those of the wild phytase.

[2] = tested on: O=P(O)(O)O[C@H]1[C@H](OP(=O)(O)O)[C@@H](OP(=O)(O)O)[C@H](OP(=O)(O)O)[C@@H](OP(=O)(O)O)[C@H]1OP(=O)(O)O; experiment: as above; type: biochemical, Y. kristensenii; details: other: E230D, optimal pH 4.5 and temperature 55° C.
Experimental: According to embodiment of the present invention, the phytase variant YkAPPA-E230D with amino acid sequence as set forth in SEQ ID NO.9 is obtained by mutation at the 230th site of glutamic acid into aspartic acid for phytase with amino acid as set forth in SEQ ID NO.1.
as §1, §2, §3, §4

[3] = tested on: O=P(O)(O)O[C@H]1[C@H](OP(=O)(O)O)[C@@H](OP(=O)(O)O)[C@H](OP(=O)(O)O)[C@@H](OP(=O)(O)O)[C@H]1OP(=O)(O)O; experiment: Kinetic parameters of phytase with sodium phytate (double reciprocal method); type: biochemical, Y. kristensenii; details: other: wild type, optimal pH 4.5 and temperature 55° C.
Experimental: as §1, §2, §3, §4

[4] = tested on: O=P(O)(O)O[C@H]1[C@H](OP(=O)(O)O)[C@@H](OP(=O)(O)O)[C@H](OP(=O)(O)O)[C@@H](OP(=O)(O)O)[C@H]1OP(=O)(O)O; experiment: Kinetic parameters of phytase variant with sodium phytate (double reciprocal method); type: biochemical, Y. kristensenii; details: other: L162G, optimal pH 4.5 and temperature 55° C.
Experimental: (§5) According to embodiment of the present invention, the phytase variant YkAPPA-L162G with amino acid sequence as set forth in SEQ ID NO.3 is obtained by mutation at the 162th site of Leucine into glycine for phytase with amino acid as set forth in SEQ ID NO.1.
as §1, §2, §3, §4

[5] = tested on: O=P(O)(O)O[C@H]1[C@H](OP(=O)(O)O)[C@@H](OP(=O)(O)O)[C@H](OP(=O)(O)O)[C@@H](OP(=O)(O)O)[C@H]1OP(=O)(O)O; experiment: as above; type: biochemical, Y. kristensenii; details: other: E230P, optimal pH 4.5 and temperature 60° C.
Experimental: According to embodiment of the present invention, the phytase variant YkAPPA-E230P with amino acid sequence as set forth in SEQ ID NO.10 is obtained by mutation at the 230th site of glutamic acid into proline for phytase with amino acid as set forth in SEQ ID NO.1.
as §1, §2, §3, §4

[6] = tested on: O=P(O)(O)O[C@H]1[C@H](OP(=O)(O)O)[C@@H](OP(=O)(O)O)[C@H](OP(=O)(O)O)[C@@H](OP(=O)(O)O)[C@H]1OP(=O)(O)O; experiment: as above; type: biochemical, Y. kristensenii; details: other: E230R, optimal pH 4.0 and temperature 55° C.
Experimental: According to embodiment of the present invention, the phytase variant YkAPPA-E230R with amino acid sequence as set forth in SEQ ID NO.11 is obtained by mutation at the 230th site of […] for phytase with amino acid as set forth in SEQ ID.
as §1, §2, §3, §4

[7] = tested on: O=P(O)(O)O[C@H]1[C@H](OP(=O)(O)O)[C@@H](OP(=O)(O)O)[C@H](OP(=O)(O)O)[C@@H](OP(=O)(O)O)[C@H]1OP(=O)(O)O; experiment: as above; type: biochemical, Y. kristensenii; details: other: E230A, optimal pH 4.5 and temperature 55° C.
Experimental: (§6) According to embodiment of the present invention, the phytase variant YkAPPA-E230A with amino acid sequence as set forth in SEQ ID NO.6 is obtained by mutation at the 230th site of glutamic acid into alanine for phytase with amino acid as set forth in SEQ ID NO.1.
as §1, §2, §3, §4

[8] = tested on: Y. kristensenii phytase YkAPPA variant YkAPPA-L162G, SEQ ID NO.3; experiment: as above; type: biochemical; details: L162G vs wild phytase
Experimental: as §5, §1, §2, §3, §4

[9] = tested on: Y. kristensenii phytase YkAPPA variant YkAPPA-E230G, SEQ ID NO.5; experiment: as above; type: biochemical; details: E230G vs wild phytase
Experimental: (§7) According to embodiment of the present invention, the phytase variant YkAPPA-E230G with amino acid sequence as set forth in SEQ ID NO.5 is obtained by mutation at the 230th site of glutamic acid into glycine for phytase with amino acid as set forth in SEQ ID NO.1.
as §1, §2, §3, §4

[10] = tested on: Y. kristensenii phytase YkAPPA variant YkAPPA-E230A, SEQ ID NO.6; experiment: as above; type: biochemical; details: E230A vs wild phytase
Experimental: as §6, §1, §2, §3, §4

[11] = tested on: O=P(O)(O)O[C@H]1[C@H](OP(=O)(O)O)[C@@H](OP(=O)(O)O)[C@H](OP(=O)(O)O)[C@@H](OP(=O)(O)O)[C@H]1OP(=O)(O)O; experiment: as above; type: biochemical, Y. kristensenii; details: other: E230T, optimal pH 4.5 and temperature 55° C.
Experimental: According to embodiment of the present invention, the phytase variant YkAPPA-E230T with amino acid sequence as set forth in SEQ ID NO.8 is obtained by mutation at the 230th site of glutamic acid into threonine for phytase with amino acid as set forth in SEQ ID NO.1.
as §1, §2, §3, §4

[12] = tested on: O=P(O)(O)O[C@H]1[C@H](OP(=O)(O)O)[C@@H](OP(=O)(O)O)[C@H](OP(=O)(O)O)[C@@H](OP(=O)(O)O)[C@H]1OP(=O)(O)O; experiment: as above; type: biochemical, Y. kristensenii; details: other: E230G, optimal pH 4.5 and temperature 55° C.
Experimental: as §7, §1, §2, §3, §4

Q: Which Km [1] does the source give for “Y. kristensenii phytase YkAPPA variant YkAPPA-E230S, SEQ ID NO.7 (Yersinia kristensenii; E230S)” here?
A: The Km was 90 µM.

Q: What about the Vmax [1] of the same molecule?
A: The Vmax was 3800 µmol/min/mg.

Q: And the kcat [1]?
A: Its kcat is 2900 s⁻¹.

Q: And the kcat/Km [1]?
A: The kcat/Km was 2.93e+07 M⁻¹ s⁻¹.

Q: What does the source list for “Y. kristensenii phytase YkAPPA variant YkAPPA-E230D, SEQ ID NO.9 (Yersinia kristensenii; E230D)”?
A: Km [2]: 90 µM; Vmax [2]: 3590 µmol/min/mg; kcat [2]: 2740 s⁻¹; kcat/Km [2]: 2.91e+07 M⁻¹ s⁻¹

Q: How did the Km [3] turn out when “Yersinia (Y.) kristensenii phytase YkAPPA, wild type, SEQ ID NO.1 (Yersinia kristensenii)” was run?
A: Its Km is 90 µM.

Q: And the Vmax [3]?
A: The Vmax was 3550 µmol/min/mg.

Q: What about the kcat [3] of the same molecule?
A: The kcat was 2720 s⁻¹.

Q: What about the kcat/Km [3] of the same molecule?
A: Its kcat/Km is 2.94e+07 M⁻¹ s⁻¹.

Q: For “Y. kristensenii phytase YkAPPA variant YkAPPA-L162G, SEQ ID NO.3 (Yersinia kristensenii; L162G)”, which Km [4] is on record?
A: The Km was 90 µM.

Q: And the Vmax [4]?
A: The Vmax was 6320 µmol/min/mg.

Q: What about the kcat [4] of the same molecule?
A: The kcat was 4840 s⁻¹.

Q: What about the kcat/Km [4] of the same molecule?
A: The kcat/Km was 4.61e+07 M⁻¹ s⁻¹.

Q: “Y. kristensenii phytase YkAPPA variant YkAPPA-E230P, SEQ ID NO.10 (Yersinia kristensenii; E230P)” was tested. Which Km [5] did it give?
A: The Km was 80 µM.

Q: And the Vmax [5]?
A: Its Vmax is 3180 µmol/min/mg.

Q: What about the kcat [5] of the same molecule?
A: The kcat was 2430 s⁻¹.

Q: What about the kcat/Km [5] of the same molecule?
A: The kcat/Km was 2.98e+07 M⁻¹ s⁻¹.

Q: Which results are given for “Y. kristensenii phytase YkAPPA variant YkAPPA-E230R, SEQ ID NO.11 (Yersinia kristensenii; E230R)”?
A: Km [6]: 110 µM; Vmax [6]: 4330 µmol/min/mg; kcat [6]: 3310 s⁻¹; kcat/Km [6]: 2.99e+07 M⁻¹ s⁻¹

Q: Which Km [7] does the source give for “Y. kristensenii phytase YkAPPA variant YkAPPA-E230A, SEQ ID NO.6 (Yersinia kristensenii; E230A)” here?
A: The Km was 90 µM.

Q: What about the Vmax [7] of the same molecule?
A: Its Vmax is 4530 µmol/min/mg.

Q: And the kcat [7]?
A: The kcat was 3470 s⁻¹.

Q: What about the kcat/Km [7] of the same molecule?
A: Its kcat/Km is 3.77e+07 M⁻¹ s⁻¹.

Q: Which results are given for `O=P(O)(O)O[C@H]1[C@H](OP(=O)(O)O)[C@@H](OP(=O)(O)O)[C@H](OP(=O)(O)O)[C@@H](OP(=O)(O)O)[C@H]1OP(=O)(O)O` [sodium phytate]?
A: Reaction rate Vmax relative to the wild phytase [8]: 1.6 to 1.8 times; catalytic efficiency relative to the wild phytase [8]: 2.1 times; conversion rate Kcat relative to the wild phytase [8]: 1.6 to 1.8 times; Reaction rate Vmax relative to the wild phytase [9]: 1.9 times; catalytic efficiency Kcat/km relative to the wild phytase [9]: 2.1 times; conversion rate Kcat relative to the wild phytase [9]: 1.9 times; Reaction rate Vmax relative to the wild phytase [10]: 1.3 times; catalytic efficiency relative to the wild phytase [10]: 2.1 times; conversion rate Kcat relative to the wild phytase [10]: 1.3 times

Q: What does the source list for “Y. kristensenii phytase YkAPPA variant YkAPPA-E230T, SEQ ID NO.8 (Yersinia kristensenii; E230T)”?
A: Km [11]: 80 µM; Vmax [11]: 3250 µmol/min/mg; kcat [11]: 2480 s⁻¹; kcat/Km [11]: 2.98e+07 M⁻¹ s⁻¹

Q: Which results are given for “Y. kristensenii phytase YkAPPA variant YkAPPA-E230G, SEQ ID NO.5 (Yersinia kristensenii; E230G)”?
A: Km [12]: 100 µM; Vmax [12]: 7100 µmol/min/mg; kcat [12]: 5430 s⁻¹; kcat/Km [12]: 6.17e+07 M⁻¹ s⁻¹

Source: patent publication US11028377B2, “Phytase variants YkAPPA having improved pepsin resistance and increased catalytic efficiency” (priority 2017, dated 2021)
